What was measured:
[1] = substrate: O=C(OCCO)c1ccc(C(=O)OCCO)cc1; test: HPLC substrate reduction, Michaelis-Menten fit; assay type: biochemical, Marinactinospora thermotolerans; conditions: 40°C, 20 mM Tris-HCl pH 8.0
From the text: (§1) HPLC substrate reduction, Michaelis-Menten fit on MtCut

[2] = substrate: O=C(O)c1ccc(C(=O)OCCO)cc1; test: HPLC substrate reduction, Michaelis-Menten fit; assay type: biochemical, Marinactinospora thermotolerans; conditions: 40°C, 20 mM Tris-HCl pH 8.0
From the text: as §1

purified protein [3] = substrate: CCCCCCCCCCCCCC(=O)Oc1ccc([N+](=O)[O-])cc1; test: purified protein; assay type: biochemical, Marinactinospora thermotolerans; conditions: 30°C, 20 mM Tris-HCl pH 8.0
purified protein [4] = substrate: CCCCCC(=O)Oc1ccc([N+](=O)[O-])cc1; test: purified protein; assay type: biochemical, Marinactinospora thermotolerans; conditions: 30°C, 20 mM Tris-HCl pH 8.0
purified protein [5] = substrate: CC(=O)Oc1ccc([N+](=O)[O-])cc1; test: purified protein; assay type: biochemical, Marinactinospora thermotolerans; conditions: 30°C, 20 mM Tris-HCl pH 8.0
purified protein [6] = substrate: CCCCCCCCCCCCCCCCCC(=O)Oc1ccc([N+](=O)[O-])cc1; test: purified protein; assay type: biochemical, Marinactinospora thermotolerans; conditions: 30°C, 20 mM Tris-HCl pH 8.0
purified protein [7] = substrate: CCCCCCCCCCCCCCCC(=O)Oc1ccc([N+](=O)[O-])cc1; test: purified protein; assay type: biochemical, Marinactinospora thermotolerans; conditions: 30°C, 20 mM Tris-HCl pH 8.0
purified protein [8] = substrate: CCCCCCCCCCCC(=O)Oc1ccc([N+](=O)[O-])cc1; test: purified protein; assay type: biochemical, Marinactinospora thermotolerans; conditions: 30°C, 20 mM Tris-HCl pH 8.0
purified protein [9] = substrate: CCCCCCCC(=O)Oc1ccc([N+](=O)[O-])cc1; test: purified protein; assay type: biochemical, Marinactinospora thermotolerans; conditions: 30°C, 20 mM Tris-HCl pH 8.0
purified protein [10] = substrate: CCCCCCCCCC(=O)Oc1ccc([N+](=O)[O-])cc1; test: purified protein; assay type: biochemical, Marinactinospora thermotolerans; conditions: 30°C, 20 mM Tris-HCl pH 8.0
purified protein [11] = substrate: CCCC(=O)Oc1ccc([N+](=O)[O-])cc1; test: purified protein; assay type: biochemical, Marinactinospora thermotolerans; conditions: 30°C, 20 mM Tris-HCl pH 8.0
[12] = substrate: O=C(OCCO)c1ccc(C(=O)OCCO)cc1; test: HPLC substrate reduction, Michaelis-Menten fit; assay type: biochemical, unidentified prokaryotic organism; conditions: 40°C, 20 mM Tris-HCl pH 8.0
From the text: (§2) HPLC substrate reduction, Michaelis-Menten fit on ICCG

[13] = substrate: O=C(O)c1ccc(C(=O)OCCO)cc1; test: HPLC substrate reduction, Michaelis-Menten fit; assay type: biochemical, unidentified prokaryotic organism; conditions: 40°C, 20 mM Tris-HCl pH 8.0
From the text: as §2

[14] = substrate: O=C(OCCO)c1ccc(C(=O)OCCO)cc1; test: HPLC substrate reduction, Michaelis-Menten fit; assay type: biochemical, Pseudideonella sakaiensis; conditions: 40°C, 20 mM Tris-HCl pH 8.0
From the text: (§3) HPLC substrate reduction, Michaelis-Menten fit on IsPETase

[15] = substrate: O=C(O)c1ccc(C(=O)OCCO)cc1; test: HPLC substrate reduction, Michaelis-Menten fit; assay type: biochemical, Pseudideonella sakaiensis; conditions: 40°C, 20 mM Tris-HCl pH 8.0
From the text: as §3

B1: MtCut (Marinactinospora thermotolerans DSM 45154) (protein)
chain: NPYERGPAPTESSVTAVRGYFDTDTDTVSSLVSGFGGGTIYYPTDTSEGTFGGVVIAPGYTASQSSMAWMGHRIASQGFVVFTIDTITRYDQPDSRGRQIEAALDYLVEDSDVADRVDGNRLAVMGHSMGGGGTLAAAENRPELRAAIPLTPWHLQKNWSDVEVPTMIIGAENDTVASVRTHSIPFYESLDEDLERAYLELDGASHFAPNISNTVIAKYSISWLKRFVDEDERYEQFLCPPPDTGLFSDFSDYRDSCPHTT
notes: 786 bp fragment, signal peptide removed, C-terminal His6 (pET22b(+), NdeI/XhoI), E. coli BL21(DE3), 34 kDa
- Km [1]: 3070 ± 930 µM
- kcat [1]: 4.27 ± 1.15 s⁻¹
- kcat/Km [1]: 1410 ± 70 M⁻¹ s⁻¹
- Km [2]: 750 ± 110 µM
- kcat [2]: 0.13 ± 0.01 s⁻¹
- kcat/Km [2]: 176 ± 14 M⁻¹ s⁻¹
- Km (purified protein [3]): 190 ± 40 µM
- kcat (purified protein [3]): 9.87 ± 1.52 s⁻¹
- kcat/Km (purified protein [3]): 51400 ± 2900 M⁻¹ s⁻¹
- Km (purified protein [4]): 4610 ± 1040 µM
- kcat (purified protein [4]): 41.7 ± 6.35 s⁻¹
- kcat/Km (purified protein [4]): 9230 ± 900 M⁻¹ s⁻¹
- Km (purified protein [5]): 550 ± 40 µM
- kcat (purified protein [5]): 4.47 ± 0.28 s⁻¹
- kcat/Km (purified protein [5]): 8190 ± 340 M⁻¹ s⁻¹
- Km (purified protein [6]): 450 ± 20 µM
- kcat (purified protein [6]): 14.3 ± 0.58 s⁻¹
- kcat/Km (purified protein [6]): 31800 ± 200 M⁻¹ s⁻¹
- Km (purified protein [7]): 150 ± 10 µM
- kcat (purified protein [7]): 4.79 ± 0.12 s⁻¹
- kcat/Km (purified protein [7]): 32500 ± 1000 M⁻¹ s⁻¹
- Km (purified protein [8]): 1680 ± 120 µM
- kcat (purified protein [8]): 30.5 ± 3.63 s⁻¹
- kcat/Km (purified protein [8]): 18100 ± 1200 M⁻¹ s⁻¹
- Km (purified protein [9]): 2550 ± 280 µM
- kcat (purified protein [9]): 79.4 ± 8.75 s⁻¹
- kcat/Km (purified protein [9]): 31100 ± 50 M⁻¹ s⁻¹
- Km (purified protein [10]): 4930 ± 530 µM
- kcat (purified protein [10]): 69.8 ± 5.15 s⁻¹
- kcat/Km (purified protein [10]): 14200 ± 500 M⁻¹ s⁻¹
- Km (purified protein [11]): 1330 ± 150 µM
- kcat (purified protein [11]): 14.1 ± 1.51 s⁻¹
- kcat/Km (purified protein [11]): 10600 ± 100 M⁻¹ s⁻¹

B2: ICCG (unidentified prokaryotic organism; D238C/F243I/S283C/Y127G) (protein)
chain: SNPYQRGPNPTRSALTADGPFSVATYTVSRLSVSGFGGGVIYYPTGTSLTFGGIAMSPGYTADASSLAWLGRRLASHGFVVLVINTNSRFDGPDSRASQLSAALNYLRTSSPSAVRARLDANRLAVAGHSMGGGGTLRIAEQNPSLKAAVPLTPWHTDKTFNTSVPVLIVGAEADTVAPVSQHAIPFYQNLPSTTPKVYVELCNASHIAPNSNNAAISVYTISWMKLWVDNDTRYRQFLCNVNDPALCDFRTNNRHCQ
notes: quadruple variant of LCC; only D238C/S283C given, the other two changes (F243I, Y127G) known from Tournier et al. 2020; expression construct not described; PDB 6THT given as the ICCG structure used for modelling
- Km [12]: 2580 ± 980 µM
- kcat [12]: 2.29 ± 0.95 s⁻¹
- kcat/Km [12]: 1000 ± 170 M⁻¹ s⁻¹
- Km [13]: 430 ± 20 µM
- kcat [13]: 0.0032 ± 0.0001 s⁻¹
- kcat/Km [13]: 6.75 ± 0.32 M⁻¹ s⁻¹

B3: IsPETase (Pseudideonella sakaiensis) (protein)
chain: QTNPYARGPNPTAASLEASAGPFTVRSFTVSRPSGYGAGTVYYPTNAGGTVGAIAIVPGYTARQSSIKWWGPRLASHGFVVITIDTNSTLDQPSSRSSQQMAALRQVASLNGTSSSPIYGKVDTARMGVMGWSMGGGGSLISAANNPSLKAAAPQAPWDSSTNFSSVTVPTLIFACENDSIAPVNSSALPIYDSMSRNAKQFLEINGGSHSCANSGNSNQALIGKKGVAWMKRFMDNDTRYSTFACENPNSTRVSDFRTANCS
notes: purified enzyme; expression construct not described
- Km [14]: 4480 ± 540 µM
- kcat [14]: 5.95 ± 0.62 s⁻¹
- kcat/Km [14]: 1330 ± 20 M⁻¹ s⁻¹
- Km [15]: 720 ± 20 µM
- kcat [15]: 0.0139 ± 0.0006 s⁻¹
- kcat/Km [15]: 19.2 ± 0.45 M⁻¹ s⁻¹

Source: publication PMC9086285, “Catalytic Features and Thermal Adaptation Mechanisms of a Deep Sea Bacterial Cutinase-Type Poly(Ethylene Terephthalate) Hydrolase” (Frontiers in Bioengineering and Biotechnology, 2022)
